Laboratory results: patent KR20210043475A (dated 2021)

Key:
PD-L1-his [1] = molecular target: T1, PD-L1-his (human, UniProt Q9NZQ7 19-238, limits assumed); assay: SPR (Biacore 8K), PD-L1-his immobilised on CM5 chip, binder as analyte
T1 construct: also called 인간 PD-L1; not shown: his tag

PD-L1 on cells [2] = molecular target: T2, PD-L1 on cells (human, UniProt Q9NZQ7 19-290); assay: cell-based or functional assay
PD-L1 on cells [3] = molecular target: T2, PD-L1 on cells; assay: flow cytometry, apparent affinity on PD-L1 + Karpas-299 cells
CD3 on T cells = molecular target: T3, CD3 on T cells (UniProt P07766 23-207); assay: flow cytometry, apparent affinity on CD3 + Jurkat T cells
T3 construct: whole, on cells; also called CD3 + Jurkat T 세포; Jurkat T 세포의 CD3
T3 sequence (P07766 23-207): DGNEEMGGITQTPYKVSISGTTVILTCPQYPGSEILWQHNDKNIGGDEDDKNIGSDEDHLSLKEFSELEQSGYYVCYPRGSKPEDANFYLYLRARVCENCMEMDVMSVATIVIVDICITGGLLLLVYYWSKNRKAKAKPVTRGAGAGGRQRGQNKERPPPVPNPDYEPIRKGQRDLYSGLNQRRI

PD-L1-his [4] = molecular target: T1, PD-L1-his; assay: SPR (Biacore 8K), PD-L1-his immobilised on CM5 chip, binder as analyte; monovalent stem Fv
PD-L1-his [5] = molecular target: T1, PD-L1-his; assay: SPR (Biacore 8K); ratio of KD against YBL-007 on PD-L1

T2 sequence (Q9NZQ7 19-290): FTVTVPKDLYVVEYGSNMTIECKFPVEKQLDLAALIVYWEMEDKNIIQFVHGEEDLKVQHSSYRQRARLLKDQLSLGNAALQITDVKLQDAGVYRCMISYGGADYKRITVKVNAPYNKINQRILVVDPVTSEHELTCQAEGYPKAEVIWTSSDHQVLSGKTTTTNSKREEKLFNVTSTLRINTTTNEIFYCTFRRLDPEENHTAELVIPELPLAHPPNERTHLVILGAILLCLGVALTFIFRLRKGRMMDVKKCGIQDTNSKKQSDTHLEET
T1 sequence (Q9NZQ7 19-238 limits assumed): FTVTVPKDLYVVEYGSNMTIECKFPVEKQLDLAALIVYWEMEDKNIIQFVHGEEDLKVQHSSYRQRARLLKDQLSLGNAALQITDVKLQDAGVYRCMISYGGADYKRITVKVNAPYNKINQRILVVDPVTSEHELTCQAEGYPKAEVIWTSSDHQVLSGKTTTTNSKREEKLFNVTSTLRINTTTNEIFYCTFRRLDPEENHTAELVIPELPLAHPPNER

B1: YBL-007 (항-PD-L1 모 항체) (antibody, V domains shown)
VH: QMQLVQSGAEVKKPGSSVKVSCKASGGTFSSYAISWVRQAPGQGLEWMGRIIPILGIANYAQKFQGRVTITADKSTSTAYMELSSLRSEDTAVYYCAKPRDGYNLVAFDIWGQGTMVTVSS
VL: QLVLTQPPSVSGAPGQRVTISCTGSSSNIGAGYDVHWYQQLPGAAPKLLIYGDINRPSGVPDRFSGSKSGISASLAITGLQAEDEADYYCQSYDSSLSGGVFGGGTKLTVLR
notes: Parent IgG; also called anti-PD-L1 parent antibody (Y-Biologics Inc.)
**Q.** For B1, which Kd (PD-L1-his [1]) is on record?
**A.** 0.646 nM

B2: ACE-05 (항-PD-L1 Fab × 항-CD3 Fv) (bispecific antibody)
heavy 1: not shown
heavy 2: not shown
light: QLVLTQPPSVSGAPGQRVTISCTGSSSNIGAGYDVHWYQQLPGAAPKLLIYGDINRPSGVPDRFSGSKSGISASLAITGLQAEDEADYYCQSYDSSLSGGVFGGGTKLTVLRSVAAPSVFIFPPSDEQLKSGTASVVCLLNNFYPREAKVQWKVDNALQSGNSQESVTEQDSKDSTYSLSSTLTLSKADYEKHKVYACEVTHQGLSSPVTKSFNRGEC
notes: also called ALiCE; ACE-05-VH / ACE-05-VL / ACE-05-LC
**Q.** Which results are given for B2?
**A.** T 세포 활성화 효율 (EC50); PD-1/PD-L1 blockade bioassay, NFAT-luciferase, PD-L1/aAPC CHO-K1 + PD-1 Jurkat (PD-L1 on cells [2]): 0.21 nM; T 세포 활성화 효율, fold against BiTE-05; PD-1/PD-L1 blockade bioassay (PD-L1 on cells [2]): 5 fold; 표적 사멸 활성 (EC50), LDH release, PD-L1 + HCC827 cells with effector cells (PBMC) (PD-L1 on cells [2]): 0.00197 nM; 표적 사멸 활성 (EC50), LDH release, PD-L1 + MDA-MB-231 cells with effector cells (CD3 + T cells) (PD-L1 on cells [2]): 0.00837 nM; Kd (PD-L1 on cells [3]): 0.0314 nM; Kd (PD-L1-his [1]): 0.678 nM; Kd (CD3 on T cells): 52.4 nM

B3: ACE-31 (항-CD3 Fab × 항-PD-L1 Fv) (bispecific antibody)
heavy 1: EVQLQQSGPELVKPGPSMKISCKASGYSFTGYTMNWVKQSHGKNLEWMGLINPYKGVSTYNQKFKDKATLTVDKSSSTAYMELLSLTSEDSAVYYCARSGYYGDSDWYFDVWGQGTTLTVFSASTKGPSVFPLAPSSKSTSGGTAALGCLVKDYFPEPVTVSWNSGALTSGVHTFPAVLQSSGLYSLSSVVTVPSSSLGTQTYICNVNHKPSNTKVDKKVEPKSCDKTHTCPPCPPCPAPELLGGPGGGGSGGGGSQMQLVQSGAEVKKPGSSVKVSCKASGGTFSSYAISWVRQAPGQGLEWMGRIIPILGIANYAQKFQGRVTITADKSTSTAYMELSSLRSEDTAVYYCAKPRDGYNLVAFDIWGQGTMVTVSS
heavy 2: EVQLQQSGPELVKPGPSMKISCKASGYSFTGYTMNWVKQSHGKNLEWMGLINPYKGVSTYNQKFKDKATLTVDKSSSTAYMELLSLTSEDSAVYYCARSGYYGDSDWYFDVWGQGTTLTVFSASTKGPSVFPLAPSSKSTSGGTAALGCLVKDYFPEPVTVSWNSGALTSGVHTFPAVLQSSGLYSLSSVVTVPSSSLGTQTYICNVNHKPSNTKVDKKVEPKSCDKTHTCPPCPPCPAPELLGGPGGGGSQLVLTQPPSVSGAPGQRVTISCTGSSSNIGAGYDVHWYQQLPGAAPKLLIYGDINRPSGVPDRFSGSKSGISASLAITGLQAEDEADYYCQSYDSSLSGGVFGGGTKLTVLR
light: DIQMTQTTSSLSASLGDRVTISCRASQDIRNYLNWYQQKPDGTVKLLIYYTSRLHSGVPSKFSGSGSGTDYSLTISNLEQEDIATYFCQQGNTLPWTFAGGTKLEIKRTVAAPSVFIFPPSDEQLKSGTASVVCLLNNFYPREAKVQWKVDNALQSGNSQESVTEQDSKDSTYSLSSTLTLSKADYEKHKVYACEVTHQGLSSPVTKSFNRGEC
notes: also called ACE-31-VH / ACE-31-VL / ACE-31-LC
**Q.** Which Kd (PD-L1-his [4]) does the source give for B3 here?
**A.** 27.2 nM

**Q.** And the Kd (PD-L1 on cells [3])?
**A.** 20.6 nM

**Q.** What about the “fold lower binding affinity than the parent antibody YBL-007” value (PD-L1-his [5]) of the same binder?
**A.** 40 fold

**Q.** And the Kd (CD3 on T cells)?
**A.** 0.856 nM
